This data set in a line: soluble on expression in E. coli; label from the status in PepcDB or PDB records.
Take “MRYFALTDLTKPTAKFTTDAMELRQISNAYLNQAQAYLQKGLKQLKKDYKNAILYTPKTEYKRFLKWKQTFLQDLNQTQKRFFIVRAQHFSYVLLFNLLDEQVEAVIATFNNFLDEHRLEAQSKQFDLDTAVNELHDYFDQLQKNTAYSEDLPTHLTQKTEQLINARNTQLTNLLNKIATTKPPLNKQQRLLASFRNYHEHLFLKNEVKKVTWLNEPRAKKESVTPDEEH”: the “soluble on expression in E. coli” value was “soluble”. For “MRYFINIYVFRIKKILVLSVVNHISMDNPFSKFTNSRTIQADLSLLEENYIPDSFPHREKQINDMVTILSSIMRNSRPSNIIVYGKTGTGKTSTTKYVTRMLQEATSNVEVIYVNCEIYDSPYSILVYVANFAGGEKIPELGWPVDRIYREAVDRINGTGKFFVIVLDEMDRLIKKSGGDSLYVLLKLMTDVENVKVSMIGITNDTTLLENLDSRIKSRLNQESIVFPPYNATEIRDIIASRLEKVFGPGVVDDTAINLCAAIGAQEHGDARKAIDLMRIAIEIAIRENRLKVTEKEVYEARDKYEMNVMHEAINTLPIHSKIVLLSAIVTQEIEPNSVITGEIYENYRRICEDLGFTPLTPRRISDLLTELSDYGLIVVDERNMGKYGRTRGFSVVKEIETIKKYLMEDENLSMFKTSKMTKQARFDS” the value was “not soluble”; for “MRYKKTLMLSIMITSFNSFAFNDNYSSTSTVYATSNEATDSRGSEHLRYPYLECIKIGMSRDYLENCVKVSFPTSQDMFYDAYPSTESDGAKTRTKEDFSARLLAGDYDSLQKLYIDFYLAQTTFDWEIPTRDQIETLVNYANEGKLSTALNQEYITGRFLTKENGRYDIVNVGGVPDNTPVKLPAIVSKRGLMGTTSVVNAIPNEIYPHIKVYEGTLSRLKPGGAMIAVLEYDVSELSKHGYTNLWDVQFKVLVGVPHAETGVIYDPVYEETVKPYQPSGNLTGKKLYNVSTNDMHNGYKWSNTMFSNSNYKTQILLTKGDGSGVKLYSKAYSENFK”, “not soluble”; for “MRYLLSLSVFLIVSLNPAFAEWTGDNVEGMHSGMIINKFHSGQVDGKPYFCIEAFKPSTTITACSVKDTSIWGASYNTLYDQAMYYYTTGKRIRVYYAPDVWTNNSFVRALTANALVGFSTCISESSCFGPDRKKHKFTVH”, “not soluble”. For the sequence “MRYPEHADPVITLTAGPVNAYPEVLRGLGRTVLYDYDPAFQLLYEKVVDKAQKAMRLSNKPVILHGEPVLGLEAAAASLISPDDVVLNLASGVYGKGFGYWAKRYSPHLLEIEVPYNEAIDPQAVADMLKAHPEITVVSVCHHDTPSGTINPIDAIGALVSAHGAYLIVDAVSSFGGMKTHPEDCKADIYVTGPNKCLGAPPGLTMMGVSERAWAKMKANPLAPRASMLSIVDWENAWSRDKPFPFTPSVSEINGLDVALDLYLNEGPEAVWARHALTAKAMRAGVTAMGLSVWAASDSIASPTTTAVRTPDGVDEKALRQAARARYGVVFSSGRGETLGKLTRIGHMGPTAQPIYAIAALTALGGAMNAAGRKLAIGKGIEAALAVIDADA”, the “soluble on expression in E. coli” value was “soluble”. The same measure for “MSAALEKPQIIAHIQKSLNYTVFESKWIPCSAKFVCMGNFARGTGVMQIYEIQHGELQLVREIEKSKPIKCGTFGATSLQQRHLATGDFDGNLNVWNLEVPDSPVYSVKAHKEIINAIDGVGGLGIGDGAPEIVTGSRDGTVKVWDSRQKDTPVVNMEPTEGETKRDCWTVAFGHAFNDQDRCVCAGYDNGDIKLFDLRNMSLRWEKNIRNGVCSVEFDRKDINMNKLVATSLEGKFHVFDMRTQHPSKGFASVSEKAHKSTIWQVRHLPQNRDVFMTAGGAGNLHLWKYEYPAQRSKKGADDVEMGVAGSVNLLQNVTLSTQPISSLDWSPDKQGLCVCSSFDQSVRVLIVTKLNTV”: “soluble”; for “MSAANPTRDDFASLLEESFTTGHSGEGQVVKGTITAIEKDMAIIDVGLKVEGRVPLKEFGVKGKDTTLKVGDTVEVYVERIENALGEAMLSREKARREESWVRLEEKFTKGERVEGVIFNQVKGGFTVDLDGAVAFLPRSQVDIRPIRDVSPLMHNPQPFEILKMDRRRGNIVVSRRTVLEESRAEQRSEIVQNLEEGQVVEGVVKNITDYGAFVDLGGIDGLLHVTDMAWRRVNHPTEILNIGQTVKVQIIRINQETHRISLGMKQLESDPWSEIGTKFPIGKKIKGTVTNITDYGAFVELEPGIEGLIHVSEMSWTKKNVHPGKILSTTQEVDVVVLEVDPAKRRISLGLKQTLENPWEAFARNHPVGSQVEGEVKNKTEFGLFIGLEGDVDGMVHLSDLDWTRPGEQVIEEYNRGDMVKAQVLDVDIEKERISLGIKQLARDTVGEAATSGELRKNAVVTCEVIGVKDGGLEVRLVDSGIETFIKRSDLSRDRDEQRPERFTVGQKVDARVIAFDKKTRKLQVSIKALEIAEEKEAVAQYGSTDSGASLGDILGAALKKQGNLEHHHHHH”: “soluble”. For “MSADLKQSRLADWRQRALAFEREVGKAVIGLERPIRHILIAVFARGHVMLEGDVGVGKTTLLRAVARCLGGAYERVEGTIDLMPNDLVYHTYINELGKPQVEPGPVLKHGEELSVFFFNEVNRARPQVHSLLLRIMAEHAVSAFNREHFFPYLQVFADRNRVEKEETFEIPSAARDRFMMELHVETPADPALRRALMFDPKFHDVDRLLDTLTPGILPYREIPQIAPVIQQSVTASETLQQYALDLWEATRRPADYGVKLEGIDMDRLILAGASARGVSMMMRAARVAAWLDGRDYLVPEDIHDVFRETIGHRVFFNPVYELRRTALIDELLHAIRQKVAAPLEHHHHHH”, the “soluble on expression in E. coli” value is “soluble”. For “MSAIENIVISMENATERRKHITKQFESKKLSFSFFNAYTYQSINQSINQSINQSINQSINQSINQSINQSNSILHNIEESRILTKGEKGCLISHFLLWNKCVNENFEYLKIFEDDVILGENAEVFLNQNEWLKTRFDFNDIFIIRLETFLQPVKLEKQTKIPPFNSRNFDILKSTHWGTAGYIISQGAAKYVIEYLKNIPSDEIVAVDELIFNKLVDVDNYIVYQLNPAICIQELQANQSKSVLTSGLEKERQKRSKIRKKKTLKQRLTRIKENIIRALNRKKWKEQQRIKEMQGKEIVRFMLEHHHHHH” the value was “not soluble”; for “MSAKLISVTKPVVEGVNTAEELIAYAARVSNPENQINNKTASGLLKYCIRHKHWSIFETAFMTLELKTSRGIAAQVIRHRSFHFQEFSQRYASVMETPPPHQARFQDHKNRQNSLDTVPEDDQTWWATEQEKLYAQSMELYNKALEKGIAKECARFILPLSTPTTIYMSGTIRDWIHYIELRTSNGTQREHIDLANACKEIFIKEFPSIAKALDWVH”, “soluble”. The same measure for “MSAKQKELERLLELKKKQEEQQVLNQKDMLERIKLENKYMEFLQMTSQQMEEELKKRGPVKEVEVKGKDIDPIIADYKKLYSKESWYKEPETKDGKTHLTFPSQEAAGTFFKDQAEKNRSFIVIDAATNKVLAYSNGDGKLYNGNGSLYQGGDFKASKEDFTSFKMPEREEPKMGMQL”: “not soluble”; for “MSALPPVYSFPPLYTRQPNSLTRRQQISTWIDIISQYCKTKKIWYMSVDGTVINDNELDSGSTDNDDSKKISKNLFNNEDIQRSVSQVFIDEIWSQMTKEGKCLPIDQSGRRSSNTTTTRYFILWKSLDSWASLILQWFEDSGKLNQVITLYELSEGDETVNWEFHRMPESLLYYCLKPLCDRNRATMLKDENDKVIAIKVV”: “soluble”; for “MSAQINNIRPEFDREIVDIVDYVMNYEISSKVAYDTAHYCLLDTLGCGLEALEYPACKKLLGPIVPGTVVPNGVRVPGTQFQLDPVQAAFNIGAMIRWLDFNDTWLAAEWGHPSDNLGGILATADWLSRNAVASGKAPLTMKQVLTAMIKAHEIQGCIALENSFNRVGLDHVLLVKVASTAVVAEMLGLTREEILNAVSLAWVDGQSLRTYRHAPNTGTRKSWAAGDATSRAVRLALMAKTGEMGYPSALTAPVWGFYDVSFKGESFRFQRPYGSYVMENVLFKISFPAEFHSQTAVEAAMTLYEQMQAAGKTAADIEKVTIRTHEACIRIIDKKGPLNNPADRDHCIQYMVAIPLLFGRLTAADYEDNVAQDKRIDALREKINCFEDPAFTADYHDPEKRAIANAITLEFTDGTRFEEVVVEYPIGHARRRQDGIPKLVDKFKINLARQFPTRQQQRILEVSLDRARLEQMPVNEYLDLYVI”: “soluble”. The same measure for “MSCFRGDVDFCPECGNILPLPSRLNTITCPRCSFKISVQDFTSQVIKSSVMFNPLDQSNVAVGSAEDAELKGPVIDRKCSRCNKEGMVYHTRQMRSADEGQTVFFTCIHCRFQEKEDS”: “not soluble”; for “MSCGYTGPINEQNKENIKRAIAMHAAARRTRMLQQLREGLQLYRLVDIMEKNKEVCRSHFVFEGGNDQVDSQYIVSHLDPKMSESGTLKHSKEMQILNNFQDFLMELEDGGPEDEEALCVSKVMQWLSGQAHVHLLLSERQAFKITVLFDHTCMERMPDHRICYPVDSAWTQTITFPTAHSTSLNQFKENMRIAVQQGAYFYRV”: “not soluble”; for “MSDDGAFERDTTSFRHWVGDDVPPAAGRYHLYVSYACPWAHRTLLVRALLGLEDAISVSVVDPVRYDQGWTFDPEKPGCTPDHVFGGTHLRDVYTEADPEYTGRVTVPVLYDTDADTIVNNESEEIMRMLDVAFDDHAARDVDLYPEGYRDEVDRLIEDIYDPINNGVYRAGFADSQRAYDNAVDDLFEALAHYDDVLAEQRYLAGDVLTEADVAMFTTLYRFDEVYHTHFKCNRKRISDYDNLWPYLRELCQLPGVADTLYMEHVKQHYYRSHGHLNPKRLVPTGPNPAFFAPHDRDQLEHHHHHH”: “soluble”.

As for “MSDFRLKVFLSVAKNLSFTKASQELFVSQPAITKHIQELETCYQVRLFDRQGNKISLTEAGKLLQEHSEKILEDYKRLEYEMHLLHNEYIGDLKLGASTTISQYVLPPLLANFIAKFPQVNLSLLNGNSREIEAALQEHRIDLGLVEGICRLPNLRYTTFLQDELVAVVHTGSKLSLPDEITPEDLSRIPLVLRERGSGTLDVFERALSEHNMKLSSLNVLLYLGSTESIKLFLEHTDCIGIVSIRSISRELLSGTFRVIEIKGMPMLREFCFAQPQGQESGLSQVLMQFAMHHNKKL”, the “soluble on expression in E. coli” value is “not soluble”.

For “MSDGKEELVNRAKLAEQAERYDDMAASMKKVTELGAELSNEERNLLSVAYKNVVGARRSSWRVISSIEQKTEGSEKKQQMAKEYREKVEKELRDICQDVLNLLDKFLIPKAGAAESKVFYLKMKGDYYRYLAEVASGDDRNSVVEKSQQSYQEAFDIAKDKMQPTHPIRLGLALNFSVFFYEILNAPDKACQLAKQAFDDAIAELDTLNEDSYKDSTLIMQLLRDNLTLWTSDAATDDTDANETEGGN”, the “soluble on expression in E. coli” value is “soluble”. For “MSDKNIQDRAAGAIMGAFIGDALGLGPHWYYDLSELRRDYDDWITGYTDPKPDRYHAGLKAGQLSQSGFILKLMVRSLVGCGGYDTEDFCHRMDEELFPLLDGTPVNGPGGYTSQSIRETWRRRVQQMLPWGQTGGHADTTEAVERTLAIAVRYAYQPEQLAAAVSANTTLTQTDETIVSMTVAYGAVLGLLIQGHALDTGLSGKLMDLVKSGALPFHAVTGDDLQPPRPGDPDPPRAGRFASPDALLTPSYMAAAAVDPEIRIEPAWKVSIVYGMPCAIYHQLPAAYYLAARFRDDFKSAVLHAVNGGGQNQARAMLTGALAGAQTGLSGIPQYLLDGLDNSAVLGKLAVELAASVNPIMAGDPNSLEHHHHHH” the value was “not soluble”; for “MSDLTKLDWNHIRAFLKTAETGSLSAAARRLDLTQPTLSRQVAALEQDLGVMLFERIGRTLVLTDAGADLLEHTRAMGAAADRVALAASGQAQSIEGRVRITASDVMSAYVLPEALRRIRAQAPRLEIEVIAANDIRDLMRREADIAIRHVRPEQPDLIARLVREATAHFYAASGYLDRRGRPVTKDDLATHDFIAFGDVTEMLGHLTPLGLPLTRANFRLGSQSGVVAWDYVRQGFGIAPMDDGVAAATPGVERVLPQMEPLLFPVWLTAHRELHTSRRIRLVFDILAEYLTG”, “not soluble”.

The values above are taken from the DeepSol protein solubility set.
